Experimental data from patent US20240116985A1, “STAPLED PEPTIDES AND METHODS THEREOF” (priority 2020, published 2024).
Starred links: 1 amine or outer side, 2 acyl side, 3 side chain; linkers in the order of their positions; H or OH if unused. Positions of bridges follow the written chain, without caps; N, C: chain ends. Non-standard residues stand in square brackets, D forms with d. Primed or numbered codes have the meaning given here. PyrS2″ = (S)-3-amino-1-((pent-4-en-1-yloxy)carbonyl)pyrrolidine-3-carboxylic acid (stapling residue), C=CCCCOC(=O)N1CC[C@@](N[*:1])(C(=O)[*:2])C1; B5(4) = 2,2-bis(4-pentenyl)glycine = 2-amino-2-(pent-4-en-1-yl)hept-6-enoic acid (stitching residue), C=CCCCC(CCCC=C)(N[*:1])C(=O)[*:2]; B5(5) = 2,2-bis(4-pentenyl)glycine, 2-amino-2-(pent-4-en-1-yl)hept-6-enoic acid (stitching residue), C=CCCCC(CCCC=C)(N[*:1])C(=O)[*:2]; TfeGA = (S)-2-amino-3-((carboxymethyl)(2,2,2-trifluoroethyl)amino)propanoic acid, O=C([C@H](CN(CC(=O)[*:3])CC(F)(F)F)N[*:1])[*:2]; (EtSSpy)AspE = (S)-2-amino-4-oxo-4-(2-(pyridin-2-yldisulfaneyl)ethoxy)butanoic acid, O=C(C[C@H](N[*:1])C(=O)[*:2])OCCSSc1ccccn1; PyrS2 = (S)-3-amino-1-((pent-4-en-1-yloxy)carbonyl)pyrrolidine-3-carboxylic acid, C=CCCCOC(=O)N1CC[C@@](N[*:1])(C(=O)[*:2])C1; B5(22) = 2-amino-2-(pent-4-en-1-yl)hept-6-enoic acid (two alkene side chains), C=CCCCC(CCCC=C)(N[*:1])C(=O)[*:2]; AspSH = (S)-2-amino-4-mercapto-4-oxobutanoic acid, O=C(C[C@H](N[*:1])C(=O)[*:2])S[*:3]; B5 = 2-amino-2-(pent-4-en-1-yl)hept-6-enoic acid, C=CCCCC(CCCC=C)(N[*:1])C(=O)[*:2]; Trp(1-Me) = Cn1cc(C[C@H](N)C(=O)O)c2ccccc21; Phe(2-Cl) = N[C@@H](Cc1ccccc1Cl)C(=O)O; Bta = N[C@@H](Cc1csc2ccccc12)C(=O)O; αAllylPro = C=CC[C@@]1(C(=O)O)CCCN1; tBuAla = CC(C)(C)C[C@H](N)C(=O)O; 3Thi = N[C@@H](Cc1ccsc1)C(=O)O; S8 = C=CCCCCCC[C@](C)(N)C(=O)O; hLeu = CC(C)CC[C@H](N)C(=O)O; Nle = CCCC[C@H](N)C(=O)O; Abu = CC[C@H](N)C(=O)O

Biological target: Bcat-Halo (UniProt P35222)
Experiment: NanoBRET in HEK293 cells (Bcat-Halo / TCF4-Luc), absolute IC50; competitor: TCF4-Luc

Bcat-Halo, sequence (P35222 whole entry): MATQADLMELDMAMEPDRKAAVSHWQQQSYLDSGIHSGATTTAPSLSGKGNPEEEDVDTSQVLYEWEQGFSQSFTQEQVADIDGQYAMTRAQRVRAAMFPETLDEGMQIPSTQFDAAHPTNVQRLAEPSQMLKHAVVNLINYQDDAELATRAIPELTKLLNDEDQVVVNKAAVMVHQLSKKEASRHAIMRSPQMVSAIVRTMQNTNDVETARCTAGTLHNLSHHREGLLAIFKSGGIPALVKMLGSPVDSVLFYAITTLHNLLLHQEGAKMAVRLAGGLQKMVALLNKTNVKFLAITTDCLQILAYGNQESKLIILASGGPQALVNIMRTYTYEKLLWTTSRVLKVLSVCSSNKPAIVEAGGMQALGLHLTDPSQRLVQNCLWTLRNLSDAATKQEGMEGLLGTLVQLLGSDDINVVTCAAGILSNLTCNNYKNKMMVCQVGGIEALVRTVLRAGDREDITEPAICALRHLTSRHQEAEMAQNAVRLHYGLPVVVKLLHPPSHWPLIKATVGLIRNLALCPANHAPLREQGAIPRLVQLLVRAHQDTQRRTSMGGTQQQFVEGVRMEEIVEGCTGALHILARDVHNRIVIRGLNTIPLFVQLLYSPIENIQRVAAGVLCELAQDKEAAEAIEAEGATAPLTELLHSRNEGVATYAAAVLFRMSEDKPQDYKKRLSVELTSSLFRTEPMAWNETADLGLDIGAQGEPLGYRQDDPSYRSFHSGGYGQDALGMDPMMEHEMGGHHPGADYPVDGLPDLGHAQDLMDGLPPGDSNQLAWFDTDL

Row | IC50 [nM] | Binder
1 | 25600 | Ac-[αAllylPro]D[tBuAla][B5(4)]DEAAFN[PyrS2″]F[Bta]H-NH2 (staple 1-4, 4-11; not fully specified) [I-692]
2 | 6700 | Ac-[αAllylPro]D[tBuAla][B5(4)]DEAAFN[S8][3Thi][Bta]Q-NH2 (staple 1-4, 4-11; not fully specified) [I-683]
3 | 19400 | Ac-[αAllylPro]D[tBuAla][B5(4)]DEAAFN[PyrS2″]F[Bta]Q-NH2 (staple 1-4, 4-11; not fully specified) [I-685]
4 | 17000 | Ac-[αAllylPro]D[tBuAla][B5(4)]DEAAFN[PyrS2″][3Thi][Bta]Q-NH2 (staple 1-4, 4-11; not fully specified) [I-691]
5 | 28500 | Ac-[αAllylPro]D[tBuAla][B5(4)]DEAAFN[PyrS2″]F[Bta]H-NH2 (staple 1-4, 4-11; not fully specified) [I-693]
6 | 17800 | Ac-[αAllylPro]D[tBuAla][B5(4)]DEAAFN[PyrS2″][3Thi][Bta]Q-NH2 (staple 1-4, 4-11; not fully specified) [I-690]
7 | 14300 | Ac-[αAllylPro]D[tBuAla][B5(4)]DEAAFN[PyrS2″]F[Bta]Q-NH2 (staple 1-4, 4-11; not fully specified) [I-684]

Biological target: full-length beta-Catenin (Uniprot ID P35222) (Homo sapiens (Human)) (UniProt P35222)
Experiment: fluorescence polarization competition; full-length beta-catenin, competitor 5FAM-TCF4(10-53) probe
Target sequence in this assay (P35222 whole entry, one chain of several): as the sequence (P35222 whole entry) above

Row | EC50 [nM] | Binder
8 | 69 | Ac-[αAllylPro]D[hLeu][B5(5)]DDAAFN[S8]F[Bta]H-NH2 (staple 1-4, 4-11; also: staple isomer, earlier eluting HPLC peak) [I-583]
9 | 21 | Ac-[αAllylPro]D[Abu][B5]DDAAFN[S8]F[Bta]H-NH2 (staple 1-4, 4-11) [I-575]
10 | 33 | Ac-[αAllylPro]D[hLeu][B5(5)]DDAAFN[S8]F[Bta]H-NH2 (staple 1-4, 4-11) [I-584]

Biological target: full-length beta-Catenin (Uniprot ID P35222) (Homo sapiens (Human)) (UniProt P35222)
Experiment: competition fluorescence polarization; full-length beta-catenin, 5FAM-TCF4(10-53) probe as competitor
Target sequence in this assay (P35222 whole entry, one chain of several): as the sequence (P35222 whole entry) above

Row | IC50 [nM] | Binder
11 | 56 | Ac-[αAllylPro]D[Abu][B5(4)]DEAAFQ[S8]F[Bta]H-NH2 (staple 1-4, 4-11) [I-570]
12 | 69 | Ac-[αAllylPro]D[hLeu][B5(5)]DDAAFN[S8]F[Bta]H-NH2 (staple 1-4, 4-11; also: staple isomer, earlier eluting HPLC peak) [I-583]
13 | 21 | Ac-[αAllylPro]D[Abu][B5]DDAAFN[S8]F[Bta]H-NH2 (staple 1-4, 4-11) [I-575]
14 | 42 | Ac-[αAllylPro]D[Abu][B5(4)]DEAAFQ[S8]F[Bta]Q-NH2 (staple 1-4, 4-11) [I-569]
15 | 33 | Ac-[αAllylPro]D[hLeu][B5(5)]DDAAFN[S8]F[Bta]H-NH2 (staple 1-4, 4-11) [I-584]
16 | 73 | Ac-[αAllylPro]D[Abu][B5(4)]DEAAFQ[S8]F[Bta]Q-NH2 (staple 1-4, 4-11) [I-568]

Biological target: full-length beta-Catenin (Uniprot ID P35222) (Homo sapiens (Human)) (UniProt P35222)
Experiment: fluorescence polarization competition; 5FAM-TCF4(10-53) probe displaced from full-length beta-catenin
Target sequence in this assay (P35222 2-781 limits assumed): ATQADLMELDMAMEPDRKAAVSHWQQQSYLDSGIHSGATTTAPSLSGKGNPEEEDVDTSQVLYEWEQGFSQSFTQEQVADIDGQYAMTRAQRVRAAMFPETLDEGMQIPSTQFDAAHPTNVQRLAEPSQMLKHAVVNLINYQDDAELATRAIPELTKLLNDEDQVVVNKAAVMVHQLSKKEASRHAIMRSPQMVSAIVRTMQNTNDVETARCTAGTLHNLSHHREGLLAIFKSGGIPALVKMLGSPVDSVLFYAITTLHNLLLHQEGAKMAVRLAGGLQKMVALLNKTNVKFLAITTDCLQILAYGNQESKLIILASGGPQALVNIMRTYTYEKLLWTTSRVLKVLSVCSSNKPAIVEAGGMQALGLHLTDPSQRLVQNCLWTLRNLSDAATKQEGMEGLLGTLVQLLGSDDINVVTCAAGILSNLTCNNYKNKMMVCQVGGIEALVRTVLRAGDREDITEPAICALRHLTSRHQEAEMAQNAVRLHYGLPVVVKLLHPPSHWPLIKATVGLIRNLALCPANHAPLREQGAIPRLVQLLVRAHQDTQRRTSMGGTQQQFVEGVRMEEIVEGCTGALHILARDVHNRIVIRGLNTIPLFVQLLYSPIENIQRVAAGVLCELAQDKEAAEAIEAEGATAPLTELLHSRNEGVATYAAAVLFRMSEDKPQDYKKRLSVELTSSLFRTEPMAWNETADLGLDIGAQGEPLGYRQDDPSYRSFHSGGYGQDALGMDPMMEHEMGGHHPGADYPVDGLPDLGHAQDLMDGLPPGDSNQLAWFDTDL

Row | IC50 [nM] | Binder
17 | 71 | Ac-[αAllylPro]D[tBuAla][B5(22)]DDAAFL[PyrS2][3Thi][Trp(1-Me)]Q-NH2 (staple 1-4, 4-11) [I-1433]
18 | 134 | Ac-[αAllylPro]D[Nle][B5(5)]DDAAFL[PyrS2″][Phe(2-Cl)][Bta]L-NH2 (staple 1-4, 4-11; also: staple isomer of later HPLC peak) [I-1421]
19 | 44 | Ac-[αAllylPro]D[tBuAla][B5(22)]DDAAFL[PyrS2][3Thi]WQ-NH2 (staple 1-4, 4-11) [I-1431]
20 | 27 | Ac-[αAllylPro]D[tBuAla][B5(22)]DDAAFL[PyrS2][3Thi]WS-NH2 (staple 1-4, 4-11) [I-1432]
21 | 83 | Ac-[αAllylPro]D[tBuAla][B5(22)]DDAAFL[PyrS2][3Thi][Trp(1-Me)]S-NH2 (staple 1-4, 4-11) [I-1434]

Biological target: full-length beta-Catenin (Uniprot ID P35222) (Homo sapiens (Human)) (UniProt P35222)
Experiment: fluorescence polarization competition; displacement of 5FAM-TCF4(10-53) from full-length beta-catenin
Target sequence in this assay (P35222 whole entry, one chain of several): as the sequence (P35222 whole entry) above

Row | EC50 [nM] | Binder
22 | 56 | Ac-[αAllylPro]D[Abu][B5(4)]DEAAFQ[S8]F[Bta]H-NH2 (staple 1-4, 4-11) [I-570]
23 | 42 | Ac-[αAllylPro]D[Abu][B5(4)]DEAAFQ[S8]F[Bta]Q-NH2 (staple 1-4, 4-11) [I-569]
24 | 73 | Ac-[αAllylPro]D[Abu][B5(4)]DEAAFQ[S8]F[Bta]Q-NH2 (staple 1-4, 4-11) [I-568]

Biological target: full-length beta-Catenin (Uniprot ID P35222) (Homo sapiens (Human)) (UniProt P35222)
Experiment: fluorescence polarization competition; 10 nM full-length beta-catenin + 10 nM 5FAM-TCF4(10-53) as competitor probe; peptide titrated
Target sequence in this assay (P35222 2-781 limits assumed): as the sequence (P35222 2-781 limits assumed) above

Row | IC50 [nM] | Binder
25 | 235 | Ac-[αAllylPro]D[tBuAla][B5(4)]NTAAFN[PyrS2″][3Thi][Bta]N-NH2 (staple 1-4, 4-11) [I-1746]
26 | 62 | Ac-[αAllylPro][(EtSSpy)AspE][tBuAla][B5]DDAAFN[PyrS2][Phe(2-Cl)][Bta]Q-NH2 (staple 1-4, 4-11; also: earlier-eluting isomer) [I-1723]
27 | 4390 | Ac-[αAllylPro]D[tBuAla][B5(4)]NTAAFW[PyrS2″][3Thi][Bta]Q-NH2 (staple 1-4, 4-11) [I-1741]
28 | 469 | Ac-[αAllylPro]D[tBuAla][B5(4)]NTAAFN[PyrS2″][3Thi][Bta]R-NH2 (staple 1-4, 4-11) [I-1743]
29 | 135 | Ac-[αAllylPro][AspSH][tBuAla][B5]DDAAFN[PyrS2][Phe(2-Cl)][Bta]Q-NH2 (staple 1-4, 4-11; not fully specified) [I-1722]
30 | 187 | Ac-[αAllylPro]D[tBuAla][B5(5)]D[TfeGA]AAFL[PyrS2″][3Thi][Bta]L-NH2 (staple 1-4, 4-11) [I-1747]
31 | 867 | Ac-[αAllylPro]D[tBuAla][B5(4)]NTAAFN[PyrS2″][3Thi][Bta]-NH2 (staple 1-4, 4-11) [I-1742]
32 | 402 | Ac-[αAllylPro]D[tBuAla][B5(4)]NTAAFN[PyrS2″][3Thi][Bta]T-NH2 (staple 1-4, 4-11) [I-1745]
33 | 551 | Ac-[αAllylPro][(EtSSpy)AspE][tBuAla][B5]DDAAFN[PyrS2][Phe(2-Cl)][Bta]Q-NH2 (staple 1-4, 4-11; not fully specified) [I-1724]
34 | 363 | Ac-[αAllylPro]D[tBuAla][B5(4)]NTAAFN[PyrS2″][3Thi][Bta]F-NH2 (staple 1-4, 4-11) [I-1744]

Biological target: beta-catenin (Homo sapiens (Human)) (UniProt P35222)
Experiment: fluorescence polarization competition; full-length beta-catenin with 5FAM-TCF4(10-53) probe as competitor

beta-catenin (Homo sapiens (Human)), sequence (P35222 whole entry): as the sequence (P35222 whole entry) above

Row | EC50 [nM] | Binder
35 | 71 | Ac-[αAllylPro]D[tBuAla][B5(22)]DDAAFL[PyrS2][3Thi][Trp(1-Me)]Q-NH2 (staple 1-4, 4-11) [I-1433]
36 | 134 | Ac-[αAllylPro]D[Nle][B5(5)]DDAAFL[PyrS2″][Phe(2-Cl)][Bta]L-NH2 (staple 1-4, 4-11; also: staple isomer of later HPLC peak) [I-1421]
37 | 34 | Ac-[αAllylPro]D[tBuAla][B5(22)]DDAAFL[PyrS2][3Thi]WQ-NH2 (staple 1-4, 4-11) [I-1431]
38 | 27 | Ac-[αAllylPro]D[tBuAla][B5(22)]DDAAFL[PyrS2][3Thi]WS-NH2 (staple 1-4, 4-11) [I-1432]
39 | 83 | Ac-[αAllylPro]D[tBuAla][B5(22)]DDAAFL[PyrS2][3Thi][Trp(1-Me)]S-NH2 (staple 1-4, 4-11) [I-1434]

Biological target: full-length beta-Catenin (Uniprot ID P35222) (Homo sapiens (Human)) (UniProt P35222)
Experiment: fluorescence polarization competition; full-length beta-catenin + 5FAM-TCF4(10-53) probe; peptide titrated
Target sequence in this assay (P35222 2-781 limits assumed): as the sequence (P35222 2-781 limits assumed) above

Row | EC50 [nM] | Binder
40 | 9 | Ac-[αAllylPro]D[tBuAla][B5(4)]DEAAFN[PyrS2″]F[Bta]H-NH2 (staple 1-4, 4-11; not fully specified) [I-692]
41 | 25 | Ac-[αAllylPro]D[tBuAla][B5(4)]DEAAFN[PyrS2″]F[Bta]Q-NH2 (staple 1-4, 4-11; not fully specified) [I-685]
42 | 9 | Ac-[αAllylPro]D[tBuAla][B5(4)]DEAAFN[PyrS2″][3Thi][Bta]Q-NH2 (staple 1-4, 4-11; not fully specified) [I-691]
43 | 12 | Ac-[αAllylPro]D[tBuAla][B5(4)]DEAAFN[PyrS2″]F[Bta]H-NH2 (staple 1-4, 4-11; not fully specified) [I-693]
44 | 7 | Ac-[αAllylPro]D[tBuAla][B5(4)]DEAAFN[PyrS2″][3Thi][Bta]Q-NH2 (staple 1-4, 4-11; not fully specified) [I-690]
45 | 15 | Ac-[αAllylPro]D[tBuAla][B5(4)]DEAAFN[PyrS2″]F[Bta]Q-NH2 (staple 1-4, 4-11; not fully specified) [I-684]

Biological target: full-length beta-Catenin (Uniprot ID P35222) (Homo sapiens (Human)) (UniProt P35222)
Experiment: fluorescence polarization competition; full-length beta-catenin; competitor displaced: 5FAM-TCF4 10-53
Target sequence in this assay (P35222 2-781 limits assumed): as above

Row | IC50 [nM] | Binder
46 | 9 | Ac-[αAllylPro]D[tBuAla][B5(4)]DEAAFN[PyrS2″]F[Bta]H-NH2 (staple 1-4, 4-11; not fully specified) [I-692]
47 | 19 | Ac-[αAllylPro]D[tBuAla][B5(4)]DEAAFN[S8][3Thi][Bta]Q-NH2 (staple 1-4, 4-11; not fully specified) [I-683]
48 | 25 | Ac-[αAllylPro]D[tBuAla][B5(4)]DEAAFN[PyrS2″]F[Bta]Q-NH2 (staple 1-4, 4-11; not fully specified) [I-685]
49 | 9 | Ac-[αAllylPro]D[tBuAla][B5(4)]DEAAFN[PyrS2″][3Thi][Bta]Q-NH2 (staple 1-4, 4-11; not fully specified) [I-691]
50 | 12 | Ac-[αAllylPro]D[tBuAla][B5(4)]DEAAFN[PyrS2″]F[Bta]H-NH2 (staple 1-4, 4-11; not fully specified) [I-693]
51 | 7 | Ac-[αAllylPro]D[tBuAla][B5(4)]DEAAFN[PyrS2″][3Thi][Bta]Q-NH2 (staple 1-4, 4-11; not fully specified) [I-690]
52 | 15 | Ac-[αAllylPro]D[tBuAla][B5(4)]DEAAFN[PyrS2″]F[Bta]Q-NH2 (staple 1-4, 4-11; not fully specified) [I-684]
